According to publication PMC8988012 (The Journal of Biological Chemistry, 2022):

T1: His-Zyxin (wildtype) (UniProt Q15942 1-572)
T1 sequence (looked up): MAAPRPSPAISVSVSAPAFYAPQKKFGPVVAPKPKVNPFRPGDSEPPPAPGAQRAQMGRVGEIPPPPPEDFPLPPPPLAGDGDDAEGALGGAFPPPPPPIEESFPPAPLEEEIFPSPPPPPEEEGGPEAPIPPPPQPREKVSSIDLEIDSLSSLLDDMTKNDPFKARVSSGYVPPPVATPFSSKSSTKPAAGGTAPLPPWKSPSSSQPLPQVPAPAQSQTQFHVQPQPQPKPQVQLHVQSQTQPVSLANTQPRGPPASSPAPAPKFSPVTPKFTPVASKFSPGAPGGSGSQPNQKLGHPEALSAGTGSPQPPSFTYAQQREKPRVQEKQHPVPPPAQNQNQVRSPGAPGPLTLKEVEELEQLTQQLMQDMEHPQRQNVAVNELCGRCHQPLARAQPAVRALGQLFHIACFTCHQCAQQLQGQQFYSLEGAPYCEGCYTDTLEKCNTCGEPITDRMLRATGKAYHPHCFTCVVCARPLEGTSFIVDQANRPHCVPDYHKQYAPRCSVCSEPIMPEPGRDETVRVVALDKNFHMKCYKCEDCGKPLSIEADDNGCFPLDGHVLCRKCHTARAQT


Tests used:
His-Zyxin (wildtype) = molecular target: T1, His-Zyxin (wildtype); assay: pull-down
[1] = mCherry-Zyxin microscopy, U2OS, ± GFP-14-3-3γ; settings: glycan changed form; control: wild type
[2] = GFP-Zyxin1–350 microscopy, U2OS, ± mCherry-14-3-3γ; settings: glycan changed form; control: Zyxin (1–350), Ser-169

| binding result (His-Zyxin (wildtype)) | Binder | other: 14-3-3γ-induced nuclear localisation [1] | other: 14-3-3γ-induced nuclear localisation [2] |
| --- | --- | --- | --- |
| binds | GST-14-3-3γ (natural protein, UniProt P61981 1-247, looked up) MVDREQLVQKARLAEQAERYDDMAAAMKNVTELNEPLSNEERNLLSVAYKNVVGARRSSWRVISSIEQKTSADGNEKKIEMVRAYREKIEKELEAVCQDVLSLLDNYLIKNCSETQYESKVFYLKMKGDYYRYLAEVATGEKRATVVESSEKAYSEAHEISKEHMQPTHPIRLGLALNYSVFYYEIQNAPEQACHLAKTAFDDAIAELDTLNEDSYKDSTLIMQLLRDNLTLWTSDQQDDDGGEGNN | – | – |
| – | Zyxin: S169C (protein) parent chain: MAAPRPSPAISVSVSAPAFYAPQKKFGPVVAPKPKVNPFRPGDSEPPPAPGAQRAQMGRVGEIPPPPPEDFPLPPPPLAGDGDDAEGALGGAFPPPPPPIEESFPPAPLEEEIFPSPPPPPEEEGGPEAPIPPPPQPREKVSSIDLEIDSLSSLLDDMTKNDPFKARVSSGYVPPPVATPFSSKSSTKPAAGGTAPLPPWKSPSSSQPLPQVPAPAQSQTQFHVQPQPQPKPQVQLHVQSQTQPVSLANTQPRGPPASSPAPAPKFSPVTPKFTPVASKFSPGAPGGSGSQPNQKLGHPEALSAGTGSPQPPSFTYAQQREKPRVQEKQHPVPPPAQNQNQVRSPGAPGPLTLKEVEELEQLTQQLMQDMEHPQRQNVAVNELCGRCHQPLARAQPAVRALGQLFHIACFTCHQCAQQLQGQQFYSLEGAPYCEGCYTDTLEKCNTCGEPITDRMLRATGKAYHPHCFTCVVCARPLEGTSFIVDQANRPHCVPDYHKQYAPRCSVCSEPIMPEPGRDETVRVVALDKNFHMKCYKCEDCGKPLSIEADDNGCFPLDGHVLCRKCHTARAQT | no change | no change |
